1 molecule from article doi:10.1101/781922 (bioRxiv, 2019) can be followed below.

The target in the assay is T1, Arabidopsis TIR1, coexpressed with AtASK1 (His10-eGFP-FLAG-(TEV)-AtTIR1 and His10-(TEV)-AtASK1) (Arabidopsis, UniProt Q570C0;Q39255).
T1 sequence 1: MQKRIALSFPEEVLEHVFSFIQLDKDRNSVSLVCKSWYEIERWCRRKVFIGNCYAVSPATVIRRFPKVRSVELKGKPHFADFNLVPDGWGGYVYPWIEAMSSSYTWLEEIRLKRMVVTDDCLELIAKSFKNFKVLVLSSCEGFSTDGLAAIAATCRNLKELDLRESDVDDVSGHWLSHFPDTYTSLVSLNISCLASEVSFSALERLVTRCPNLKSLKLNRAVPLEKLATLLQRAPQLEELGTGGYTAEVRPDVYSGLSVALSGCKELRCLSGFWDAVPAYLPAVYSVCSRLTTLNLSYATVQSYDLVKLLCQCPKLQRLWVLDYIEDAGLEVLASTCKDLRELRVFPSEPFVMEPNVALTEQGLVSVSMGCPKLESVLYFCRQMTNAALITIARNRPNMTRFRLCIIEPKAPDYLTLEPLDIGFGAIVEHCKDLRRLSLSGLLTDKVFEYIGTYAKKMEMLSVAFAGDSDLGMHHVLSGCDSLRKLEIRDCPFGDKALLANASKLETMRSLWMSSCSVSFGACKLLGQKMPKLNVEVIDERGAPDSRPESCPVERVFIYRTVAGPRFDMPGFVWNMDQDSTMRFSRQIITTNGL
T1 sequence 2: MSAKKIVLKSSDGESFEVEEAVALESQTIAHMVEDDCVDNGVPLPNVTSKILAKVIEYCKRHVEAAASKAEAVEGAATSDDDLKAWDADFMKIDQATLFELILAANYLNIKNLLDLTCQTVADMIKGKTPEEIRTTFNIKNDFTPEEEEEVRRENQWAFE
Kind of assay: NMR titration.

B1: AXR3 DI/DII (N-terminal half, domains I and II, of the Aux/IAA protein AXR3/IAA17) (domain or fragment)
chain: MMGSVELNLRETELCLGLPGGDTVAPVTGNKRGFSETVDLKLNLNNEPANKEGSTTHDVVTFDSKEKSACPKDPAKPPAKAQVVGWPPVRSYRKNVMVSCQ
Consider B1, for which the binding result is recorded as “binds”.
